The values below come from EP4428150A1 (Peptide Logic LLC, dated 2024).

A value given as a limit tells only on which side of the number the result lay.

The Kd is a measure of binding affinity in units of concentration. As a reminder, the koff is the rate constant with which the complex falls apart. Broadly, the kon is a measure of how fast the partners come together.

Experiment [1] has as its target T1, human prolactin (human, UniProt P01236 29-227).
T1 sequence (looked up): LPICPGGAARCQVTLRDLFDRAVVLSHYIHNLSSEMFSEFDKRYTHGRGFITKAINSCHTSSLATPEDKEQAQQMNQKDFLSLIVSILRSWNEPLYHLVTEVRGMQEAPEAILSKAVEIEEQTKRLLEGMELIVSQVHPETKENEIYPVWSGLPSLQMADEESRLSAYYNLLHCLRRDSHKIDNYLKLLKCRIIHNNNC
Description: cell-based or functional assay.

The target of experiment [2] is T2, cynomolgus monkey PRL (cynomolgus monkey, UniProt A0A2K5X975 30-228).
T2 sequence: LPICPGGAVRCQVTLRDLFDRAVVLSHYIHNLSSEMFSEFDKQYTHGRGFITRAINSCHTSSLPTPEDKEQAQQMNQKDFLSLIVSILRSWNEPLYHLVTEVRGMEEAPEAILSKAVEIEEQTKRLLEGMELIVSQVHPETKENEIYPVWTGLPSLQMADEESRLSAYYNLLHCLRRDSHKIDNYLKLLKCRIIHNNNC
Description: cell-based or functional assay.

The target in experiment [3] is T3, mouse PRL (mouse, UniProt P06879 30-226).
T3 sequence (looked up): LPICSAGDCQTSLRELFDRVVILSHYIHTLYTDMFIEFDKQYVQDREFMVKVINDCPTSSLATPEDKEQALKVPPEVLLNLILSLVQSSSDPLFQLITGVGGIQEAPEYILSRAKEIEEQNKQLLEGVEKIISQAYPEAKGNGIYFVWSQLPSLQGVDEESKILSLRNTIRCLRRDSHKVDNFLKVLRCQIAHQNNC
Description: cell-based or functional assay.

For experiment [4], the target named is human growth hormone (human, UniProt P01241 27-217). Description: cell-based or functional assay.
human growth hormone, sequence (P01241 27-217 limits assumed): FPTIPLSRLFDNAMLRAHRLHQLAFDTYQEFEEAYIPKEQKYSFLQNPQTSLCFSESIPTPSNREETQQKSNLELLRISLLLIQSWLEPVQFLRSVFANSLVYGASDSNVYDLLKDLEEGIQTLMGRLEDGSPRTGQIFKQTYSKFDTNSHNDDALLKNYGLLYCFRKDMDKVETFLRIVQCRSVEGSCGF
For experiment [5], the target named is human placental lactogen (human, UniProt P0DML2 27-217). Description: cell-based or functional assay.
human placental lactogen, sequence (P0DML2 27-217 limits assumed): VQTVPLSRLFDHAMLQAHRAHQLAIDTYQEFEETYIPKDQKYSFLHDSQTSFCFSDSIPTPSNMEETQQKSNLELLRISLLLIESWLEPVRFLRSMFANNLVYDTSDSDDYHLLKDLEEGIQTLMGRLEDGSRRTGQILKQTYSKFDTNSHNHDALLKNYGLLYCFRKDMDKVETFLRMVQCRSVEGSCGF
The target in experiment [6] is T2, cynomolgus monkey PRL. The experiment can be described thus: bio-layer interferometry (Octet-RED96), antibody captured on anti-human IgG Fc sensors, 1:1 fit. For orientation: BLI is a label-free optical method that tracks binding on a fibre tip over time.
For experiment [7], the target named is T1, human prolactin. Description: bio-layer interferometry (Octet-RED96), antibody captured on anti-human IgG Fc sensors, 1:1 global fit.
In experiment [8] the target is T3, mouse PRL. The experiment can be described thus: bio-layer interferometry (Octet-RED96), antibody captured on anti-human IgG Fc sensors; kinetics not determined.

B1: Antibody 37 (antibody, human IgG4 S228P, kappa, V domains shown)
VH: QVQLVQSGAEVKKPGASVKVSCKASGYTFSNFWIEWVRQAPGQRLEWMGEIFPGTGSTYYTEKFKVRVTITRDTSASTAYMELSSLRSEDTAVYYCARRGYSDSWFAHWGQGTLVTVSS
VL: DIQMTQSPSSLSASVGDRVTITCRASESVDMYGKSFMHWYQQKPGKAPKLLIYRASTLESGVPSRFSGSGSGTDFTLTISSLQPEDFATYYCQQNVEAPLTFGGGTKVEIKR
notes: Humanized IgG4(S228P), IGHV1-3 heavy and IGKV1-39 light frameworks; also called humanized anti-hPRL antibody
For B1, the “IC50 in the in vitro CHO-hPRLR phospho-STAT5 cell signaling assay” value in experiment [1] is 3.1 nM; in experiment [2], 4.7 nM; in experiment [3], over 150 nM; in experiment [4] it was over 150 nM; in experiment [5], over 3.62 µM. Besides, the values for the Kd in experiment [6], in experiment [7] and in experiment [8] were 0.565 nM, 0.621 nM and over 100 nM, respectively. Besides, the koff in experiment [6] was found to be 0.000307 s⁻¹; in experiment [7] it was 0.000215 s⁻¹. Moreover, the kon amounted to 543000 M⁻¹ s⁻¹ in experiment [6] and 347000 M⁻¹ s⁻¹ in experiment [7].
